Reference: US7364741

Assays:
[1] = target: HLA-A2.1 molecules expressed by 174CEM.T2 cells (human); assay: T2 HLA-A2.1 stabilisation, flow cytometry (BB7.2), peptide 200 ug/ml
[2] = target: HLA-A1 molecules isolated from the EBV transformed cell line Steinlin (human)
[3] = target: HLA-A3.2 molecules isolated from the EBV transformed cell line GM3107 (human)
[4] = target: HLA-A11.2 molecules isolated from the cell line BVR (human)
[5] = target: HLA-A24 molecules isolated from the EBV transformed cell line KT3 (human)
[6] = target: HLA-A2.1 molecules isolated from the EBV transformed cell line JY (human)

## […] (residues 25-33 of HPV16 protein E6) (peptide; other documents disagree on this pair)
[1]
  FI (Fluorescence Index): 0.6
  MF (mean fluorescence): 108

## […] (residues 82-90 of HPV16 protein E7) (peptide; other documents disagree on this pair)
[1]
  FI (Fluorescence Index): 0.8
  MF (mean fluorescence): 119

## … (residues 19-27 of HPV16 protein E7), synthesized with alanine instead of cysteine (peptide; other documents disagree on this pair)
[2]
  binding ratio to standard: 0.023

## … (residues 33-41 of HPV16 protein E6), synthesized with alanine instead of cysteine (peptide; other documents disagree on this pair)
[3]
  binding ratio to standard: 1.5
[4]
  binding ratio to standard: 6.7

## … (residues 37-45 of HPV16 protein E6) with alanine instead of cysteine (peptide; other documents disagree on this pair)
[3]
  binding ratio to standard: 0.032
[4]
  binding ratio to standard: 0.045

## … (residues 38-46 of HPV16 protein E6), synthesized with alanine instead of cysteine (peptide; other documents disagree on this pair)
[3]
  binding ratio to standard: 0.0012
[4]
  binding ratio to standard: 0.0022
[5]
  binding ratio to standard: 0.0011

## … (residues 51-59 of HPV16 protein E7), synthesized with alanine instead of cysteine (peptide; other documents disagree on this pair)
[3]
  binding ratio to standard: 0.026
[4]
  binding ratio to standard: 0.001

## … (residues 52-60 of HPV16 protein E6), synthesized with alanine instead of cysteine (peptide; other documents disagree on this pair)
[6]
  binding ratio to standard: 0.37

## … (residues 52-60 of HPV16 protein E7), synthesized with alanine instead of cysteine (peptide; other documents disagree on this pair)
[3]
  binding ratio to standard: 0.0067
[4]
  binding ratio to standard: 0.006

## … (residues 58-66 of HPV16 protein E7), synthesized with alanine instead of cysteine (peptide; other documents disagree on this pair)
[3]
  binding ratio to standard: 0.0016
[4]
  binding ratio to standard: 0.011

## … (residues 60-68 of HPV16 protein E7), synthesized with alanine instead of cysteine (peptide; other documents disagree on this pair)
[3]
  binding ratio to standard: 0.0012

## … (residues 66-74 of HPV16 protein E6), synthesized with alanine instead of cysteine (peptide; other documents disagree on this pair)
[5]
  binding ratio to standard: 0.0055

## … (residues 67-75 of HPV16 protein E6), synthesized with alanine instead of cysteine (peptide; other documents disagree on this pair)
[3]
  binding ratio to standard: 0.0012
[4]
  binding ratio to standard: 0.0074

## … (residues 68-76 of HPV16 protein E6), synthesized with alanine instead of cysteine (peptide; other documents disagree on this pair)
[3]
  binding ratio to standard: 0.0056
[4]
  binding ratio to standard: 0.0037

## … (residues 69-77 of HPV16 protein E6), synthesized with alanine instead of cysteine (peptide; other documents disagree on this pair)
[3]
  binding ratio to standard: 0.0025
[4]
  binding ratio to standard: 0.003

## … (residues 72-80 of HPV16 protein E6), synthesized with alanine instead of cysteine (peptide; other documents disagree on this pair)
[5]
  binding ratio to standard: 0.11

## … (residues 79-87 of HPV16 protein E6) with alanine instead of cysteine (peptide; other documents disagree on this pair)
[3]
  binding ratio to standard: 0.0044
[4]
  binding ratio to standard: 0.0076

## … (residues 80-88 of HPV16 protein E6), synthesized with alanine instead of cysteine (peptide; other documents disagree on this pair)
[3]
  binding ratio to standard: 0.0064
[4]
  binding ratio to standard: 0.43

## … (residues 82-90 of HPV16 protein E6), synthesized with alanine instead of cysteine (peptide; other documents disagree on this pair)
[5]
  binding ratio to standard: 0.046

## … (residues 84-92 of HPV16 protein E6), synthesized with alanine instead of cysteine (peptide; other documents disagree on this pair)
[3]
  binding ratio to standard: 0.0036

## … (residues 85-93 of HPV16 protein E6), synthesized with alanine instead of cysteine (peptide; other documents disagree on this pair)
[5]
  binding ratio to standard: 0.0037

## … (residues 86-94 of HPV16 protein E7) (peptide)
[1]
  FI (Fluorescence Index): 2.5
  MF (mean fluorescence): 228

## … (residues 87-95 of HPV16 protein E6), synthesized with alanine instead of cysteine (peptide; other documents disagree on this pair)
[5]
  binding ratio to standard: 0.12

## … (residues 90-98 of HPV16 protein E7), synthesized with alanine instead of cysteine (peptide; other documents disagree on this pair)
[4]
  binding ratio to standard: 0.0012

## … (residues 97-105 of HPV16 protein E6), synthesized with alanine instead of cysteine (peptide; other documents disagree on this pair)
[3]
  binding ratio to standard: 0.0045

## … (residues 107-115 of HPV16 protein E6), synthesized with alanine instead of cysteine (peptide; other documents disagree on this pair)
[3]
  binding ratio to standard: 3.7
[4]
  binding ratio to standard: 0.012

## … (residues 139-147 of HPV16 protein E6), synthesized with alanine instead of cysteine (peptide; other documents disagree on this pair)
[2]
  binding ratio to standard: 0.02

## … (residues 140-148 of HPV16 protein E6), synthesized with alanine instead of cysteine (peptide; other documents disagree on this pair)
[4]
  binding ratio to standard: 0.0012

## … (residues 143-151 of HPV16 protein E6), synthesized with alanine instead of cysteine (peptide; other documents disagree on this pair)
[3]
  binding ratio to standard: 0.18
[4]
  binding ratio to standard: 0.0084

## … (residues 144-152 of HPV16 protein E6), synthesized with alanine instead of cysteine (peptide; other documents disagree on this pair)
[2]
  binding ratio to standard: 0.019

## … (residues 145-153 of HPV16 protein E6), synthesized with alanine instead of cysteine (peptide; other documents disagree on this pair)
[3]
  binding ratio to standard: 0.02

## … (residues 146-154 of HPV16 protein E6), synthesized with alanine instead of cysteine (peptide; other documents disagree on this pair)
[3]
  binding ratio to standard: 0.002
